{
  "source": "paper PMC9482650",
  "about": "“Quantitative fragmentomics allow affinity mapping of interactomes” (Nature Communications, 2022)",
  "experiment_in_all_cases": "holdup assay",
  "set-up_in_all_cases": "key: below the threshold = too weak to quantify, mostly under pKd 3.1 to 4",
  "settings_in_all_cases": "plain residues with an end cap or a label only (N-terminal biotin on a linker: gsgsgs; C-terminal amide)",
  "key": {"DLG1_3, Q12959": {"biological_target": "DLG1_3, Q12959", "sequence (Q12959 457-571)": "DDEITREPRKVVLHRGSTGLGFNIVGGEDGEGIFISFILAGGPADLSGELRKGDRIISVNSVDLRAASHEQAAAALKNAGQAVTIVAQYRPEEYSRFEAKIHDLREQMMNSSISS"}, "GORASP2, Q9H8Y8": {"biological_target": "GORASP2, Q9H8Y8"}, "GRIP2_5, Q9C0E4": {"biological_target": "GRIP2_5, Q9C0E4", "sequence (Q9C0E4 544-642)": "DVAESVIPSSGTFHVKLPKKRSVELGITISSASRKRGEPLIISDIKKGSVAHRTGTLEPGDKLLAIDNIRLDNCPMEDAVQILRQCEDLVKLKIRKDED"}, "GRIP2_4, Q9C0E4": {"biological_target": "GRIP2_4, Q9C0E4", "sequence (Q9C0E4 446-548)": "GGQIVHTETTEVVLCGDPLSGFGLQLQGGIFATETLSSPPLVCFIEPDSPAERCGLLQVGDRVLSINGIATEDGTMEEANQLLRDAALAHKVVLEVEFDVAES"}, "Inadl_4, Q8NI35": {"biological_target": "Inadl_4, Q8NI35", "sequence (Q8NI35 547-651)": "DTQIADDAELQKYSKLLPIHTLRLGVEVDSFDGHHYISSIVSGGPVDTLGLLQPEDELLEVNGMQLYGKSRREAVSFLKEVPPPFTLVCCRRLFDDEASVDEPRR"}, "MPDZ_10, O75970": {"biological_target": "T1, MPDZ_10, O75970", "T1 sequence (O75970 1624-1722, limits assumed, looked up)": "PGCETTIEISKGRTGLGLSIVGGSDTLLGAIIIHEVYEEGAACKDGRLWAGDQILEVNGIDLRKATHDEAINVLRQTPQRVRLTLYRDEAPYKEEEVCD"}, "APBA2_2, Q99767": {"biological_target": "T2, APBA2_2, Q99767", "T2 sequence (Q99767 654-744, limits assumed, looked up)": "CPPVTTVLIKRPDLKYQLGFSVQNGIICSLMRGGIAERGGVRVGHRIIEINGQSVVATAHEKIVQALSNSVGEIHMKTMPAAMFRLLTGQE"}, "Inadl_1, Q8NI35": {"biological_target": "Inadl_1, Q8NI35", "sequence (Q8NI35 113-229)": "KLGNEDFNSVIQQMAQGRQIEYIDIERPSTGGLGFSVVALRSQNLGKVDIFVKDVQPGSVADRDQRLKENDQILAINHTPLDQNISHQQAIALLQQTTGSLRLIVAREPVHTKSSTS"}, "Inadl_5, Q8NI35": {"biological_target": "Inadl_5, Q8NI35", "sequence (Q8NI35 673-780)": "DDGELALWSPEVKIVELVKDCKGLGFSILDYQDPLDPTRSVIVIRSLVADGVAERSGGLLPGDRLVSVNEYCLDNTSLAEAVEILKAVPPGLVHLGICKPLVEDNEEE"}, "GRID2IP_2, A4D2P6": {"biological_target": "GRID2IP_2, A4D2P6", "sequence (A4D2P6 272-370)": "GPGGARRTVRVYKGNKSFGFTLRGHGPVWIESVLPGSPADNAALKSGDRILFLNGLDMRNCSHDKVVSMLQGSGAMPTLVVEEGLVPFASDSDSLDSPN"}, "ARHGEF11, O15085": {"biological_target": "T3, ARHGEF11, O15085", "T3 sequence (O15085 42-136, limits assumed, looked up)": "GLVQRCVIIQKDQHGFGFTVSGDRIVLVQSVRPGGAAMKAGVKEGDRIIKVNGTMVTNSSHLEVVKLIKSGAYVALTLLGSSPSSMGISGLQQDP"}, "MAGI3_2, Q5TCQ9": {"biological_target": "MAGI3_2, Q5TCQ9", "sequence (Q5TCQ9 398-503)": "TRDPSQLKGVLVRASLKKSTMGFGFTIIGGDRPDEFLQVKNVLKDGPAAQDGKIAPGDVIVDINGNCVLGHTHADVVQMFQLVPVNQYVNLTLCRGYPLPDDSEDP"}, "PICK1, Q9NRD5": {"biological_target": "PICK1, Q9NRD5", "sequence (Q9NRD5 17-115)": "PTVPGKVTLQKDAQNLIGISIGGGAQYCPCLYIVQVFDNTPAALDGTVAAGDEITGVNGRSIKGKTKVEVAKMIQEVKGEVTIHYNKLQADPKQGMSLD"}, "MAST1, Q9Y2H9": {"biological_target": "MAST1, Q9Y2H9", "sequence (Q9Y2H9 962-1065)": "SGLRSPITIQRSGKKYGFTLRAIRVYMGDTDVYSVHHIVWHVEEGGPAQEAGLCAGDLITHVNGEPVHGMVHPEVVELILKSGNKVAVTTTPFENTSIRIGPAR"}, "LNX2_2, Q8N448": {"biological_target": "T4, LNX2_2, Q8N448", "T4 sequence (Q8N448 334-432, limits assumed, looked up)": "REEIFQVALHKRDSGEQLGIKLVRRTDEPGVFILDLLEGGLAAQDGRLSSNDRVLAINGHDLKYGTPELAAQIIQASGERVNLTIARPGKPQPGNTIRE"}, "GOPC, Q9HD26": {"biological_target": "GOPC, Q9HD26"}, "Inadl_9, Q8NI35": {"biological_target": "Inadl_9, Q8NI35", "sequence (Q8NI35 1530-1615)": "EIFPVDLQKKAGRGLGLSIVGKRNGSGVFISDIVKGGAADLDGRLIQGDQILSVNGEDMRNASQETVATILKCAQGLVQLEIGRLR"}, "HTRA3, P83110": {"biological_target": "T5, HTRA3, P83110", "T5 sequence (P83110 354-453, limits assumed, looked up)": "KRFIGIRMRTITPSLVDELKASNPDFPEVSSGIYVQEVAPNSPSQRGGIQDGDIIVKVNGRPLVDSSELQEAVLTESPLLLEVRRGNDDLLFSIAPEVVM"}, "DFNB31_2, Q9P202": {"biological_target": "T6, DFNB31_2, Q9P202", "T6 sequence (Q9P202 274-371, limits assumed, looked up)": "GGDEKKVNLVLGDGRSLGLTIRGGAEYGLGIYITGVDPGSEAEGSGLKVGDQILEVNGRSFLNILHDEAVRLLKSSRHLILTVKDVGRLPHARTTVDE"}, "MAGI1_1, Q96QZ7": {"biological_target": "MAGI1_1, Q96QZ7", "sequence (Q96QZ7 1-106)": "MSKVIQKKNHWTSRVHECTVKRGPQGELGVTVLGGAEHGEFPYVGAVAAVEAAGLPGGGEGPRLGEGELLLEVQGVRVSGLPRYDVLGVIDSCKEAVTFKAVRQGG"}, "HTRA1, Q92743": {"biological_target": "HTRA1, Q92743", "sequence (Q92743 360-477)": "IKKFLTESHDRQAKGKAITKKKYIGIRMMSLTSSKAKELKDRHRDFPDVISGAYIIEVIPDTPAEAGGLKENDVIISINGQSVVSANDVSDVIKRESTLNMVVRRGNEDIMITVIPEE"}, "HTRA2, O43464": {"biological_target": "HTRA2, O43464", "sequence (O43464 355-458)": "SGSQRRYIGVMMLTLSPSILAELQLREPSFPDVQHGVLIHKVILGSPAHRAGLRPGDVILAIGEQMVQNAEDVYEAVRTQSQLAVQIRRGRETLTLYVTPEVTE"}, "SNX27, Q96L92": {"biological_target": "SNX27, Q96L92"}, "IL16_3, Q14005": {"biological_target": "IL16_3, Q14005", "sequence (Q14005 1107-1207)": "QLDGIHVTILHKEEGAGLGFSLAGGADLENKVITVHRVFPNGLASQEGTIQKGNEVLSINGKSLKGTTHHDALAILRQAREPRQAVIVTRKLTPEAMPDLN"}, "TJP1_3, Q07157": {"biological_target": "TJP1_3, Q07157", "sequence (Q07157 416-512)": "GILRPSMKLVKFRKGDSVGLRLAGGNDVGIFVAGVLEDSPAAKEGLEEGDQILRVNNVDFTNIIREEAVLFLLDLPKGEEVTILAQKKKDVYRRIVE"}, "LNX2_3, Q8N448": {"biological_target": "T7, LNX2_3, Q8N448", "T7 sequence (Q8N448 463-564, limits assumed, looked up)": "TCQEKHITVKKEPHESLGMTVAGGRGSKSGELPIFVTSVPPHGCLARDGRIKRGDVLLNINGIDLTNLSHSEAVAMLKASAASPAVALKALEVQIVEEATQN"}, "DFNB31_3, Q9P202": {"biological_target": "T8, DFNB31_3, Q9P202", "T8 sequence (Q9P202 811-907, limits assumed, looked up)": "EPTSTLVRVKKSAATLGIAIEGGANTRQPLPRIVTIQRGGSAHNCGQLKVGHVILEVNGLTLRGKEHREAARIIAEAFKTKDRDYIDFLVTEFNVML"}, "TJP1_2, Q07157": {"biological_target": "TJP1_2, Q07157", "sequence (Q07157 181-274)": "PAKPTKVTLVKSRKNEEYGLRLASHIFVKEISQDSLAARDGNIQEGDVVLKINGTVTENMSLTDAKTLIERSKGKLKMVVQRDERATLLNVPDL"}, "NHERF3_3, Q5T2W1": {"biological_target": "T9, NHERF3_3, Q5T2W1", "T9 sequence (Q5T2W1 238-333, limits assumed, looked up)": "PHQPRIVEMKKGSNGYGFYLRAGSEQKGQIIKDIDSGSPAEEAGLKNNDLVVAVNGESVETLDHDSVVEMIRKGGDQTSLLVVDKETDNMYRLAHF"}},
  "data": [
    {"binder": "VSVDDVRSTSQGLSSY", "note": "[DFNB31_int, Q9P202]", "values": [
      {"measurement": "pKd", "setting": "DLG1_3, Q12959", "value": "below the threshold"},
      {"measurement": "pKd", "setting": "GORASP2, Q9H8Y8", "value": "below the threshold"},
      {"measurement": "pKd", "setting": "GRIP2_5, Q9C0E4", "value": "below the threshold"},
      {"measurement": "pKd", "setting": "GRIP2_4, Q9C0E4", "value": "below the threshold"},
      {"measurement": "pKd", "setting": "Inadl_4, Q8NI35", "value": "below the threshold"},
      {"measurement": "pKd", "setting": "MPDZ_10, O75970", "value": "below the threshold"},
      {"measurement": "pKd", "setting": "APBA2_2, Q99767", "value": "below the threshold"},
      {"measurement": "pKd", "setting": "Inadl_1, Q8NI35", "value": "below the threshold"},
      {"measurement": "pKd", "setting": "Inadl_5, Q8NI35", "value": "below the threshold"},
      {"measurement": "pKd", "setting": "GRID2IP_2, A4D2P6", "value": "below the threshold"},
      {"measurement": "pKd", "setting": "ARHGEF11, O15085", "value": "below the threshold"},
      {"measurement": "pKd", "setting": "MAGI3_2, Q5TCQ9", "value": "below the threshold"},
      {"measurement": "pKd", "setting": "PICK1, Q9NRD5", "value": "below the threshold"},
      {"measurement": "pKd", "setting": "MAST1, Q9Y2H9", "value": "below the threshold"},
      {"measurement": "pKd", "setting": "LNX2_2, Q8N448", "value": "below the threshold"},
      {"measurement": "pKd", "setting": "GOPC, Q9HD26", "value": "below the threshold"},
      {"measurement": "pKd", "setting": "Inadl_9, Q8NI35", "value": "below the threshold"},
      {"measurement": "pKd", "setting": "HTRA3, P83110", "value": "below the threshold"},
      {"measurement": "pKd", "setting": "DFNB31_2, Q9P202", "value": "below the threshold"},
      {"measurement": "pKd", "setting": "MAGI1_1, Q96QZ7", "value": "below the threshold"},
      {"measurement": "pKd", "setting": "HTRA1, Q92743", "value": "below the threshold"},
      {"measurement": "pKd", "setting": "HTRA2, O43464", "value": "below the threshold"},
      {"measurement": "pKd", "setting": "SNX27, Q96L92", "value": "below the threshold"},
      {"measurement": "pKd", "setting": "IL16_3, Q14005", "value": "below the threshold"},
      {"measurement": "pKd", "setting": "TJP1_3, Q07157", "value": "below the threshold"},
      {"measurement": "pKd", "setting": "LNX2_3, Q8N448", "value": "below the threshold"},
      {"measurement": "pKd", "setting": "DFNB31_3, Q9P202", "value": 4.02},
      {"measurement": "pKd", "setting": "TJP1_2, Q07157", "value": "below the threshold"},
      {"measurement": "pKd", "setting": "NHERF3_3, Q5T2W1", "value": "below the threshold"}
    ]}
  ]
}
